Measured values: publication PMC7367873, “Dissecting the sequence determinants for dephosphorylation by the catalytic subunits of phosphatases PP1 and PP2A” (Nature Communications, 2020)

B1: MPRIP (protein, UniProt Q6WCQ1 2-1025, looked up)
Myosin phosphatase …: SAAKENPCRKFQANIFNKSKCQNCFKPRESHLLNDEDLTQAKPIYGGWLLLAPDGTDFDNPVHRSRKWQRRFFILYEHGLLRYALDEMPTTLPQGTINMNQCTDVVDGEGRTGQKFSLCILTPEKEHFIRAETKEIVSGWLEMLMVYPRTNKQNQKKKRKVEPPTPQEPGPAKVAVTSSSSSSSSSSSIPSAEKVPTTKSTLWQEEMRTKDQPDGSSLSPAQSPSQSQPPAASSLREPGLESKEEESAMSSDRMDCGRKVRVESGYFSLEKTKQDLKAEEQQLPPPLSPPSPSTPNHRRSQVIEKFEALDIEKAEHMETNAVGPSPSSDTRQGRSEKRAFPRKRDFTNEAPPAPLPDASASPLSPHRRAKSLDRRSTEPSVTPDLLNFKKGWLTKQYEDGQWKKHWFVLADQSLRYYRDSVAEEAADLDGEIDLSACYDVTEYPVQRNYGFQIHTKEGEFTLSAMTSGIRRNWIQTIMKHVHPTTAPDVTSSLPEEKNKSSCSFETCPRPTEKQEAELGEPDPEQKRSRARERRREGRSKTFDWAEFRPIQQALAQERVGGVGPADTHEPLRPEAEPGELERERARRREERRKRFGMLDATDGPGTEDAALRMEVDRSPGLPMSDLKTHNVHVEIEQRWHQVETTPLREEKQVPIAPVHLSSEDGGDRLSTHELTSLLEKELEQSQKEASDLLEQNRLLQDQLRVALGREQSAREGYVLQATCERGFAAMEETHQKKIEDLQRQHQRELEKLREEKDRLLAEETAATISAIEAMKNAHREEMERELEKSQRSQISSVNSDVEALRRQYLEELQSVQRELEVLSEQYSQKCLENAHLAQALEAERQALRQCQRENQELNAHNQELNNRLAAEITRLRTLLTGDGGGEATGSPLAQGKDAYELEVLLRVKESEIQYLKQEISSLKDELQTALRDKKYASDKYKDIYTELSIAKAKADCDISRLKEQLKAATEALGEKSPDSATVSGYDIMKSKSNPDFLKKDRSCVTRQLRNIRSKSVIEQVSWDT
B2: KIF5B (protein, UniProt P33176 2-963, looked up)
Kinesin-1 heavy chain: ADLAECNIKVMCRFRPLNESEVNRGDKYIAKFQGEDTVVIASKPYAFDRVFQSSTSQEQVYNDCAKKIVKDVLEGYNGTIFAYGQTSSGKTHTMEGKLHDPEGMGIIPRIVQDIFNYIYSMDENLEFHIKVSYFEIYLDKIRDLLDVSKTNLSVHEDKNRVPYVKGCTERFVCSPDEVMDTIDEGKSNRHVAVTNMNEHSSRSHSIFLINVKQENTQTEQKLSGKLYLVDLAGSEKVSKTGAEGAVLDEAKNINKSLSALGNVISALAEGSTYVPYRDSKMTRILQDSLGGNCRTTIVICCSPSSYNESETKSTLLFGQRAKTIKNTVCVNVELTAEQWKKKYEKEKEKNKILRNTIQWLENELNRWRNGETVPIDEQFDKEKANLEAFTVDKDITLTNDKPATAIGVIGNFTDAERRKCEEEIAKLYKQLDDKDEEINQQSQLVEKLKTQMLDQEELLASTRRDQDNMQAELNRLQAENDASKEEVKEVLQALEELAVNYDQKSQEVEDKTKEYELLSDELNQKSATLASIDAELQKLKEMTNHQKKRAAEMMASLLKDLAEIGIAVGNNDVKQPEGTGMIDEEFTVARLYISKMKSEVKTMVKRCKQLESTQTESNKKMEENEKELAACQLRISQHEAKIKSLTEYLQNVEQKKRQLEESVDALSEELVQLRAQEKVHEMEKEHLNKVQTANEVKQAVEQQIQSHRETHQKQISSLRDEVEAKAKLITDLQDQNQKMMLEQERLRVEHEKLKATDQEKSRKLHELTVMQDRREQARQDLKGLEETVAKELQTLHNLRKLFVQDLATRVKKSAEIDSDDTGGSAAQKQKISFLENNLEQLTKVHKQLVRDNADLRCELPKLEKRLRATAERVKALESALKEAKENASRDRKRYQQEVDRIKEAVRSKNMARRGHSAQIAKPIRPGQHPAASPTHPSAIRGGGAFVQNSQPVAVRGGGGKQV

Assays:
[1] = system: GFP-14-3-3β and its binding proteins; test: GFP-14-3-3β co-IP with LC-MS/MS label-free quantification, untreated versus PP1c-treated; set-up: species or system human; details: PP1 vs untreated; LFQ intensities, replicates 1-3
GFP-14-3-3β = GFP-14-3-3β co-IP with LC-MS/MS, untreated GFP-14-3-3β versus GFP control (14-3-3 interactome); type: binding, human; details: untreated vs GFP; LFQ intensities, replicates 1-3

| Molecule | Difference (log2), PP1 vs untreated [1] [log2] | Difference (log2), untreated vs GFP (GFP-14-3-3β) [log2] |
| --- | --- | --- |
| B1 | -1.951 | 1.085 |
| B2 | -1.944 | 3.573 |
